Test: yeast display, Sf9 membrane polyspecificity reagent, FACS + sequencing; frameworks hold sequencing errors
Method in brief: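 Sorting gates, low and high (top ~1%), were placed on anti-HA fluorescence to track expression and on streptavidin fluorescence to track reagent binding. A clone's polyreactivity label is taken from the gate it came out of. The reagent was 10% biotinylated, detergent-solubilized Sf9 membrane, applied for 1 hour at 4 °C to galactose-induced yeast display cells.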
With “QVQLLESGGGLVQAGGSLRLSCAASGFNFYRYAMGWYRQAPGKERELVAAIRKSGGSTYYADSVKGRFTISRDNAKNTVYCQMNSLKPEDTAVSYCAKRYATDGFGYWGQGTQVSVSS” the “polyreactivity (PSR sort gate)” value was “high polyreactivity”.
For “QVHLVESGGGLVQAGGSLRLSCAASGRILVQNDMGWYRQAPGKERELVAAIRSDGSTSYADSVKGRFTISRDNAKNTVYLQMNSLKPEDTAVYYCAARIDWTGGEYDYWGQGTQVTVSS”, the “polyreactivity (PSR sort gate)” value was “low polyreactivity”.
With “QVQLVESGGGLVQAGGSLRLSCAASGFTFDTNAMGWYRQAPGKERELVAAISWGGDTTYYADSVKGRFTISRDNAKNTVYLQMNSLKTEDTAVYYCNVYWYDWWGYDYWGQGTQVTVSS” the “polyreactivity (PSR sort gate)” value was “high polyreactivity”.
In the case of “QVQLVESGGGLVQAGGSLRLSCAASGFTFAYYAMGWYRQAPGKERELVAAISWTGGSTYYADSVKGRFTISRDNAKNTVYLQMNSLKPEDTAVYYCAARGYRYRSYDYWGQGTQVTVSS”, the “polyreactivity (PSR sort gate)” value is reported as “high polyreactivity”.
For “QVQLVESGGGLVQAGGSLRLSCAASGSIFIVNAMGWYRQAPGKERELVATITSDVDTNYADSVKGRFTISRDNAKNTVYLQMNSLKPEDTAVYYCAKESTKIYRVVEMDYWGQGTQVTVSS”, the “polyreactivity (PSR sort gate)” value was “low polyreactivity”.
With “QVQLLDSGGGLVQAGGSLRLSCAASGSTISRNAMGWYRQAPGKERELVAAITSKGDSSYYADSVKGRFTISRDNAKNTVYLQMNSLKPEDTAVYYCAKDGVPAQDIGMDYWGQGTQVTVSS” the “polyreactivity (PSR sort gate)” value was “low polyreactivity”.
In the case of “QVQLVESGGGLVQAGGSLRLSCAASGYIFGYYAMGWYRQAPGKERELVAAISTDGSTDYADSVKGRFTISRDNAKKTVYLQMNSLKPEDTAVYYCAKELFIVTNGVYIYDSWGQGTQVTVSS”, the “polyreactivity (PSR sort gate)” value is reported as “low polyreactivity”.
For “QVQLVESGGGLVQAGGSLRLSCAASGSTFKQYAMGWYRQAPGKERELVAAISRSGSRTYYADSVKGRFTISRDNAKNTVYLQMNSLIPEDTAVYYCAAERRSTAGWLYDYWGQGTQVTVSS”, the “polyreactivity (PSR sort gate)” value was “high polyreactivity”.
For “QVQLVESGGGLVQAGGSLRLSCAASGIFAYYAMGWYRQAPGKERELVAAISSSGGSTYYADSVKGRFTISRDNAKNTFYLQMNSLKPEDTAVYYCNVRNYYNDYYYWGQGTQVTVSS”, the “polyreactivity (PSR sort gate)” value was “high polyreactivity”.
With “QVQLVESGGGLVQAGGSLRLSCAASGSIFGYYAMGWYRLAPGKERELVAAINWRGTSTYYADSVKGRFTISRDNAKNTVYLQMISLKPEDTAVYYCAARRSVGGYGYWGQGTQVTVSS” the “polyreactivity (PSR sort gate)” value was “high polyreactivity”.
With “QVQLVESGGGLVQAGVSLRLICAASGRTFGRSVMGWYRQAPGKERELVAAITSSSSSTYADSVKGRFTISRDNAKNTVYVQMNSLKPEDTEVYYCNKRYPSRHLPEYDYWGQGTQVSVSS” the “polyreactivity (PSR sort gate)” value was “high polyreactivity”.
In the case of “QVRLVESGGGLVQAGGSLRLSCAASGRILQVYAMGWYRQAPGKERELVAGIRSSGGRTYYADSVKGRFTISRDNAKNTVSLQMNSLKPEDTAVYYCAADQDWYGFVIGFDYWGQGTQVTVSS”, the “polyreactivity (PSR sort gate)” value is reported as “low polyreactivity”.
In the case of “QVQLVESGGGLVQAGGSLRLSCAASGSIYGDNAMGWYRQAPGKERELVAAINYNGGRTYYADSVKGRFTISRDTAKNTVYLQMNSLKPEDTAVYSCAKDNYQAPVQQYPFDYWGQGTQVTVSS”, the “polyreactivity (PSR sort gate)” value is reported as “low polyreactivity”.
With “QVQLVESGGGLVQAGGSLRVSCAASGSTFTAYAMGWYRQAPGKERELVAAINWSGGTTYYADSVKGRFTISRDNAKNTVYLQMNSLKPEDTAVYYCAVDGNFFGEVRPYDYWGQGTQVTVSS” the “polyreactivity (PSR sort gate)” value was “low polyreactivity”.
With “QVQLVESGGGLVQAGGSLRLSCAASGFISAYYAMGWYRQAPGKEMELVAAISWNGGRTFYADSVKGRFTISRDNAKNTVYLQMNSLKPEDTAVYYCAADGRLRGYGYWGQGTQVTVSS” the “polyreactivity (PSR sort gate)” value was “high polyreactivity”.
For “QVQLVESGGGLVQAGGSLRLSCAASGRTFYRNAMGWYRQAPGKERELVAAISRSGGRTYYADSVKGRFTISRDNAKNTVYLQMNSLKPEDTAVYYCNAQPTLAVADYDYWGQGTQVTVSS”, the “polyreactivity (PSR sort gate)” value was “high polyreactivity”.
For “QVQLVESGGGLVQAGGSLRLSCAAYGSIFYSYAMGWYRQAPGKERELVASIRIGSSTNYADSVKGRFTISRDNAKNTVYLQMNSLKPEDSAVYYCAARRFYKYYYGSDYWGQGTQVTVSS”, the “polyreactivity (PSR sort gate)” value was “high polyreactivity”.
In the case of “QVQLVESGGGLVQAGGSLRLSCAASGRIIYPNAIGWYRQAPGKERELVAGITSRGGSTYYADSVKGRFTSSRDNAKNTVYLQMNSLKPEDTAVYYCAKRYYYFYPDYDYWGQGTQVTVSS”, the “polyreactivity (PSR sort gate)” value is reported as “high polyreactivity”.
In the case of “QVQLVESGGGLVQAGGSLRLSCAASGRTFDRNAMGWYRQAPGKERELVAAITSRGGRTYYADSVKGRFTISRDNAKNTVYLQMNSLKPEDTAVYYCNAARGWGYDSWGQGTQVTVSS”, the “polyreactivity (PSR sort gate)” value is reported as “high polyreactivity”.
For “QVQHVESGGGLVQAGGSLRLSCAASGITYGRYTMGWYRQAPGKERELVAAITNGDITYYADSVKGRFTISRDNAKNTVYLQMNSLKQEDTAVYYCAADRYFWYDYWGQGTQVTVSS”, the “polyreactivity (PSR sort gate)” value was “high polyreactivity”.
In the case of “QVQLVESGGGLVQAGGSLRLSCAASGSTFIYYAMGWYRQAPGKERELVAAISKRGGNTYYADSVKGRFTISRDNAKNTVYLQMNSLKPEDTAVYYCAARVYGTSRRYYSWGQGTQVTVSS”, the “polyreactivity (PSR sort gate)” value is reported as “high polyreactivity”.
In the case of “QVQLVESGGGLVQAGGSLRLSCAASGGIFSTYTMGWSRQAPGKERELVAAITTGNSTYYADSVKGRFTISRDNAKNTVYLQMNSLKPEDTAVYYCAAFAASRDYYRRLIHDGYDYWGQGTQVTVSS”, the “polyreactivity (PSR sort gate)” value is reported as “low polyreactivity”.
With “QVQLVESGGGLVKAGGSLRLSFAASGRNFRRNAMGWYRQAPGRERELVAAISSSGGSTYYADSVKGRFTISRDNAKNTVYLQMNSLKPEDTAVYYCAVRSRFGYYWGQGTQVTVSS” the “polyreactivity (PSR sort gate)” value was “high polyreactivity”.
For “QVQLVESGGGLVQAGGSLRLSCAASGRIFSYAMGWYRQAPGKEREFVAAIRWSGGRTYYADSVKGRFTISRDNAKNTVYLQMNSLKPEDTAVYYCARQGYTLYRTRYRYDYWGQGTQVTVSS”, the “polyreactivity (PSR sort gate)” value was “high polyreactivity”.
With “QVQLVESGGGLVQAGGMRRLSCAASGRTFGQYVMGWSRQAPGKERELVAAISRRGGSTYYADSVKGRFTISRDNAKNTVYLQMNSLKPEDTAVYYCAPAGTYTGGEGYLGQGTQVTVSS” the “polyreactivity (PSR sort gate)” value was “high polyreactivity”.
With “QVQLVESGGGLVQAGGSLRLSCAASGNTFHPYAMGWYRQAPGKERALVAAITKSGGSTYYADSVKGRFTISRDNAKNTVYLQMNSLKPEDTAVYYCATDGYEYTDYGSSGYDYWGQGTQVTVSS” the “polyreactivity (PSR sort gate)” value was “low polyreactivity”.
In the case of “QVQLVESGGGLVQAGGSLRLSCAASGFICAQNAMGWYRQAPGKERELVADISGRGGRTYYADSVKGRFTISRDNAKNTVYLQMNSLKPEDTAVYYCAKDTYLQIYQYGYWGQGTQVTVSS”, the “polyreactivity (PSR sort gate)” value is reported as “high polyreactivity”.
With “QVQLVESGGGLVQAGGSLRLSCAASGFTFVDYAMGWYRQAPGKERELVAAISSSGDSTYYADSVKGRFTISRYNAKNTVYLQMNSLKPEDNAVYYCAAEYDREEYSGYDYLGQGTQVTVSS” the “polyreactivity (PSR sort gate)” value was “low polyreactivity”.
For “QVQLVESGGGLVQAGGSLRLSCAASGSTLTYNAMGWYRQAPGKERELVADITS”, the “polyreactivity (PSR sort gate)” value was “low polyreactivity”.
With “QVQLVESGGGLVQAGGSLRLSCAASGSIFGVNAMGWYRQAPGKERELVASITGGDSTNYADSVKGRFTISRDNAKNTVYLQMNSLKPEDSAVYYCAKDHYYRYEEGDYWGQGTQVTVSS” the “polyreactivity (PSR sort gate)” value was “low polyreactivity”.
For “QVQLVESGGALVQAGGSLRLSCASSGFIFGVYDMGWYRQAPGKERELVAAIDSVGSTYYADSVKGRFTISRDNAKNTVYLQMNSLKPEDTAVYYCAKDGSYQAYGYWGQGTQVTVSS”, the “polyreactivity (PSR sort gate)” value was “low polyreactivity”.
In the case of “QVQLVESGGGLVQPGGSLRLSCAASGYTSSPYAMGWYRQAPGKERELVAGISSGGSTYADSVKGRFTISRDNAKNTVYLQMISLKPEDTAVYYCADVWYYWTFEFDYWGQGTQVTVSS”, the “polyreactivity (PSR sort gate)” value is reported as “high polyreactivity”.
With “QVHLVESGGGIVQAGGSHRLSCAATGRIFAPYAMGWYRQAPGKERELVAAISWSDVSTDYADSVKGRFTISRDNAKNTVYLQMNSLKPEDTAVSYCAAAYPGYRGWYYYWGQGTQVTVSS” the “polyreactivity (PSR sort gate)” value was “high polyreactivity”.
For “QVKLVESGGGLVQAGGSLRLICAASGRISQSNAMGRYRQAPGKERELVAAISWRGGSTYYADSVMGRFTISRDNAKNTVYLQMNSLKPEDTAVYYSAVRGKYDRHYYWGQGTQVTVSS”, the “polyreactivity (PSR sort gate)” value was “high polyreactivity”.
In the case of “QVQLVESGGGLVQAGGSLRLSCAASGRTIRYYTMGWYRQAPGKEREFVAAISSTGGTYYADSVKGRFTISRDNAKNTVYLQMNSLKPEDTAVYYCAATFIQVVVNVQLYDYDYWGQGTQVTVSS”, the “polyreactivity (PSR sort gate)” value is reported as “low polyreactivity”.
With “QVQLVESGGGLVQAGGSLRLSCAASGSIFGSNALGWSRQAPGKERELVAAITWSDGSTYYADSVKGRFTISRDNAKNTVYLQMNSLKPEDTAVYVRATDYGYSWYDYWGQGTQVTVSS” the “polyreactivity (PSR sort gate)” value was “low polyreactivity”.
For “QVQLVESGGGLVQAGGSLRLSCAASGSTFADYTMGWYRQAPGKERELSTSYADSVKGRFTISRDNAKNTVYLQMNSLKPEDTAVYYCAAETFYDYGGYDYWGQGTQVTVSS”, the “polyreactivity (PSR sort gate)” value was “low polyreactivity”.
In the case of “QVQLVESGGGLVQAGGSLRLSCAASGSTFYSNAMGWYRQAPGKERELVAGISGSGGSTYYADSVKGRFTISRDNAKNTVYLQMNSLKPEDTAVYYCNARKTRSYFRFDSWGQGTQVTVSS”, the “polyreactivity (PSR sort gate)” value is reported as “low polyreactivity”.
With “QVQLVESGGGLVQAGGSLRLSCAASGITFRRYAMGWYRQAPGPEREFVATISGIGGNTYYADSVKGRFTISRANAKNPVYLQMNSLKPEDPAVYYCAADLWAGTYGEYDYWGQGPQVTVSS” the “polyreactivity (PSR sort gate)” value was “high polyreactivity”.
For “QVQLVESGGGLVQAGGSLRISCAASGMIFDWYTMGWYRQAPGKERELVAAISWRGGRTYYADSVKGRFTISRDNAQNTVYLQMNSLKPEDTAVYYCAAEGLFTGRVSRFADDHWGQGTQVTVSS”, the “polyreactivity (PSR sort gate)” value was “low polyreactivity”.
For “QVQLVESGGGLVQAGGRLRLSCAASGRILRWYTMGWYRQAPGKERELVAAITSRGGSTYYADSVKGRFTISRDNAKNTVYLQMNSLKPEDTAVYYCAAVSWYTRLTYYYWGQGTQVTVSS”, the “polyreactivity (PSR sort gate)” value was “high polyreactivity”.
For “QVQLVESGGGLVQAGGSLRLSCASSGRIFAHNAMGWYSQAPGKERELVAAINSGGSTDYADSVKGRFTISRDNAKNTVYLQMNSLKPEDTAVYYCAADDPGSFPDDSWGQGTQGTVSS”, the “polyreactivity (PSR sort gate)” value was “low polyreactivity”.
For “QVQLVESGGGLVQAGGSLRLSCAASGSIFNANAMGLYIQAPGKERELVASISGGAGSTYYADSVKGRFTISRDNAKNTVYLQMNSLKPEDTAVYYCNARWQEPLKYDYWGQGTQVTVSS”, the “polyreactivity (PSR sort gate)” value was “low polyreactivity”.
For “QVHLVDSGGGLVQAGGSLRLSCAATGFTFWYYAMGWYRQAPWKERELVATITWNGGSTYYADSVKGRFTISRDNAKNTVYIQMNSLQPEDTAVYYCNKSYISSSSWQYYYWGQGTQVTVSS”, the “polyreactivity (PSR sort gate)” value was “low polyreactivity”.

Source: the nanobody polyreactivity screen of Harvey et al. (2022)
